Data from PMC2756588.

Assays:
Assay in all cases: SPOT array
[1] = molecular target: T1, Bzz1-2, P38822; settings: median of control spots 4538
T1 sequence (P38822 568-633, looked up): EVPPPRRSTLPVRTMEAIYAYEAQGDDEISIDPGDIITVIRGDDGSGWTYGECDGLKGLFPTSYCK

[2] = molecular target: Bem1-1, P29366; settings: median of control spots 4282
[3] = molecular target: T2, Lsb4, P32793; settings: median of control spots 397
T2 sequence (P32793 402-468, looked up): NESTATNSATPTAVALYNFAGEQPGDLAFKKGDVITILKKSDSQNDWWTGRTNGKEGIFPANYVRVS

[4] = molecular target: T3, Sla1-2, P32790; settings: median of control spots 712
T3 sequence (P32790 60-140, looked up): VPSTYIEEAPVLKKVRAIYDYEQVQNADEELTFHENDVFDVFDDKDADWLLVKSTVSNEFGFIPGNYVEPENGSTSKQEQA

[5] = molecular target: GST; settings: median of control spots 978
[6] = molecular target: T4, Hof1, Q05080; settings: median of control spots 4086
T4 sequence (Q05080 590-669, looked up): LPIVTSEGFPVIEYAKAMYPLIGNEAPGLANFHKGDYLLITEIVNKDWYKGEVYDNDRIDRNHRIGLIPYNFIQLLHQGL

[7] = molecular target: T5, Nbp2, Q12163; settings: median of control spots 357
T5 sequence (Q12163 103-180, looked up): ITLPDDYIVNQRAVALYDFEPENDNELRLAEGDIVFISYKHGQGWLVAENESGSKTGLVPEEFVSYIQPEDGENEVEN

[8] = molecular target: T6, Bbc1, P47068; settings: median of control spots 796
T6 sequence (P47068 1-78, looked up): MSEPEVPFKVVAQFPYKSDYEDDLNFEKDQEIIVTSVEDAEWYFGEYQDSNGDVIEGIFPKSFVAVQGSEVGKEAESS

[9] = molecular target: T7, Boi1, P38041; settings: median of control spots 1162
T7 sequence (P38041 1-86, looked up): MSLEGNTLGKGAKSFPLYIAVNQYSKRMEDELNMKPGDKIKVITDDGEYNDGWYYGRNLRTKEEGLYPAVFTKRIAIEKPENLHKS

[10] = molecular target: T8, Pin3, Q06449; settings: median of control spots 2171
T8 sequence (Q06449 53-122, looked up): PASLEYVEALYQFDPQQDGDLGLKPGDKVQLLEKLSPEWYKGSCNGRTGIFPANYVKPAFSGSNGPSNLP

[11] = molecular target: T9, Bud14, P27637; settings: median of control spots 956
T9 sequence (P27637 247-328, looked up): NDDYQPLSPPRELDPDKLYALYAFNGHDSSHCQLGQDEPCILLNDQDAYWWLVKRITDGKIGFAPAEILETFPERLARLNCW

[12] = molecular target: Myo3, P36006; settings: median of control spots 468
[13] = molecular target: T10, Cdc25, P04821; settings: median of control spots 969
T10 sequence (P04821 50-136, looked up): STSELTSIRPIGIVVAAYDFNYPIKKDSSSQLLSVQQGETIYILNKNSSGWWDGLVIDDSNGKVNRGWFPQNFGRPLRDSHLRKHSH

[14] = molecular target: T11, Boi2, P39969; settings: median of control spots 1161
T11 sequence (P39969 32-116, looked up): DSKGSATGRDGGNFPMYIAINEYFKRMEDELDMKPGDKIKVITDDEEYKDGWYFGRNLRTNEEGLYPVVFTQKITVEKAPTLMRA

[15] = molecular target: T12, Fus1, P11710; settings: median of control spots 1200
T12 sequence (P11710 432-512, looked up): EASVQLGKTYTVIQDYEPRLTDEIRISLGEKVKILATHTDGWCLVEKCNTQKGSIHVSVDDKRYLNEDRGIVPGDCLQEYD

[16] = molecular target: T13, Abp1, P15891; settings: median of control spots 935
T13 sequence (P15891 535-592, looked up): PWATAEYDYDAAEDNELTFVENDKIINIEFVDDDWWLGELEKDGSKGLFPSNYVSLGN

[17] = molecular target: T14, Myo5, Q04439; settings: median of control spots 471
T14 sequence (Q04439 1072-1160, looked up): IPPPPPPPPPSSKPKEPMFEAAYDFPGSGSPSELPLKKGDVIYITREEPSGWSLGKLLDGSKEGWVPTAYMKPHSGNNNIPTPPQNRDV

[18] = molecular target: T15, Lsb3, P43603; settings: median of control spots 406
T15 sequence (P43603 385-451, looked up): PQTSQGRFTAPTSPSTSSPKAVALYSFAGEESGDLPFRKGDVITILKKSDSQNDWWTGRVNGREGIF

[19] = molecular target: Bem1-2, P29366; settings: median of control spots 4347
Bem1-2, P29366, sequence (P29366 139-227): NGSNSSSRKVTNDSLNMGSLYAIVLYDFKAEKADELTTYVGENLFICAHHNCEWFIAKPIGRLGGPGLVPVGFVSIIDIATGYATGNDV

[20] = molecular target: T16, Lsb1, P53281; settings: median of control spots 388
T16 sequence (P53281 45-122, looked up): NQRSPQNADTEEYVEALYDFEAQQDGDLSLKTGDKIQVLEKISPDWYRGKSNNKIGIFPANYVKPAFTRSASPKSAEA

[21] = molecular target: Rvs167, P39743; settings: median of control spots 2707
Rvs167, P39743, sequence (P39743 419-482): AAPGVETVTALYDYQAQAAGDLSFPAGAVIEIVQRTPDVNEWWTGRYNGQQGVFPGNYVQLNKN

[22] = molecular target: T17, Pex13, P80667; settings: median of control spots 1341
T17 sequence (P80667 295-386, looked up): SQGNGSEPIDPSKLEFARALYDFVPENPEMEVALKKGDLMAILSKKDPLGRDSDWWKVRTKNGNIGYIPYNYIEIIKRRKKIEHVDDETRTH

[23] = molecular target: T18, Cyk3, Q07533; settings: median of control spots 1451
T18 sequence (Q07533 1-83, looked up): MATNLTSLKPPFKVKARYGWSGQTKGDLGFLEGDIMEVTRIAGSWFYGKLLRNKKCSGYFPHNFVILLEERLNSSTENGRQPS

[24] = molecular target: Sho1, P40073; settings: median of control spots 1148
Sho1, P40073, sequence (P40073 287-367): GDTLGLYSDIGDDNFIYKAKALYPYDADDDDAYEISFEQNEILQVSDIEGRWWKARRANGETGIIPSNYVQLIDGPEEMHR

[25] = molecular target: T19, Sla1-3, P32790; settings: median of control spots 5475
T19 sequence (P32790 344-424, looked up): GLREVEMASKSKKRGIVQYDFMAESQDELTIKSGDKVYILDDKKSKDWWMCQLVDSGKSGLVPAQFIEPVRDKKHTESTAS

[26] = molecular target: T20, Hse1, P38753; settings: median of control spots 1727
T20 sequence (P38753 208-285, looked up): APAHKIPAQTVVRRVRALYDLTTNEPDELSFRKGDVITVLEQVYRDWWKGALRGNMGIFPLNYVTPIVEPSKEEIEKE

[27] = molecular target: T21, Bzz1-1, P38822; settings: median of control spots 4446
T21 sequence (P38822 478-572, looked up): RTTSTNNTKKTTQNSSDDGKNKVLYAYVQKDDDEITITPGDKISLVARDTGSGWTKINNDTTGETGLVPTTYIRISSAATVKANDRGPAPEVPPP

Bem1-1, P29366, sequence (P29366 55-141): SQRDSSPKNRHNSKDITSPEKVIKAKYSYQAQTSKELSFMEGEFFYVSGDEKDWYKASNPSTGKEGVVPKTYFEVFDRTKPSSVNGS

Binder	SPOT intensity [1]	SPOT intensity [2]	SPOT intensity [3]	SPOT intensity [4]	SPOT intensity [5]	SPOT intensity [6]	SPOT intensity [7]	SPOT intensity [8]	SPOT intensity [9]	SPOT intensity [10]	SPOT intensity [11]	SPOT intensity [12]	SPOT intensity [13]	SPOT intensity [14]	SPOT intensity [15]	SPOT intensity [16]	SPOT intensity [17]	SPOT intensity [18]	SPOT intensity [19]	SPOT intensity [20]	also measured
RMVRRRPLRVQFSAR	16	6	25	37	9	10	104	235	14	70	36	50	94	12	92	270	10	35	27	60	SPOT intensity [21]: 3; SPOT intensity [22]: 17; SPOT intensity [23]: 12; SPOT intensity [24]: 259; SPOT intensity [25]: 128; SPOT intensity [26]: 41; SPOT intensity [27]: 4
RSVKRPRRAPRPVVS	3	3	34	6	4	6	67	377	1	2	12	11	20	6	19	204	1	52	15	94	SPOT intensity [21]: 9; SPOT intensity [22]: 0; SPOT intensity [23]: 12; SPOT intensity [24]: 60; SPOT intensity [25]: 25; SPOT intensity [26]: 8; SPOT intensity [27]: 0
